From article PMC9004659

Target: Recombinant human BAX (wild type) (human) (UniProt Q07812)
Experiment: SEC

share of the BAX population shifted toward oligomers: > 70%
Substance: Recombinant human BAX (wild type) (from UniProt Q07812-1) (natural protein)
